Results as given in article PMC7154865, “High-Level Expression, Purification and Initial Characterization of Recombinant Arabidopsis Histidine Kinase AHK1” (Plants, 2020).

What was measured:
[1] = target: ETR1 (Arabidopsis thaliana) (UniProt P49333); assay: MST; settings: cited from earlier work
[2] = target: AHP1 (Arabidopsis thaliana) (UniProt Q9ZNV9); settings: cited from earlier work
[3] = target: ETR2 (Arabidopsis thaliana) (UniProt Q0WPQ2); assay: MST; settings: cited from earlier work
[4] = target: recombinant full-length Arabidopsis histidine kinase AHK1 (H10-TEV-AHK1), solubilized in FosCholine-16 (Arabidopsis thaliana) (UniProt Q9SXL4); assay: MST; 40 nM AlexaFluor488-labelled AHK1 titrated with unlabelled AHK1 (12 uM to 0.4 nM); 50 mM Tris, 300 mM NaCl, 0.015% FosCholine-16, glycerol, pH 7.6; 40% MST power, 70% LED power; initial fluorescence evaluated; one-binding-site model; apparent Kd; monomer to dimer
[5] = target: T1, recombinant full-length Arabidopsis histidine kinase AHK1 (H10-TEV-AHK1), solubilized in FosCholine-16 (Arabidopsis thaliana, UniProt Q9SXL4 1-1207, AlexaFluor488-NHS label on the labelled copy (40 nM) used in MST; the titrated copy is unlabelled); assay: MST; 40 nM AlexaFluor488-labelled AHK1 titrated with AHP2-GST (12.5 uM to 0.4 nM); HEPES/Tris 50 mM, 300 mM NaCl, FosCholine-16, 5% glycerol, pH 7.6; 40% MST power, 30% LED power; T-Jump evaluated; one-binding-site model; apparent Kd; seven measurements; settings: both partners purified
T1 construct: Arabidopsis histidine kinase 1 (AHK1), Arabidopsis thaliana, full length; cloned into pET16b-H10-TEV with primers from the ATG to the stop codon; a TEV site lies between the tag and AHK1; No step that cleaves the tag is described; also called AHK1 sensor kinase; AHK1 osmosensor; source: E. coli BL21 (DE3) with pRARE, solubilized with 1% FosCholine-16, purified (Ni-NTA)
T1 sequence (looked up): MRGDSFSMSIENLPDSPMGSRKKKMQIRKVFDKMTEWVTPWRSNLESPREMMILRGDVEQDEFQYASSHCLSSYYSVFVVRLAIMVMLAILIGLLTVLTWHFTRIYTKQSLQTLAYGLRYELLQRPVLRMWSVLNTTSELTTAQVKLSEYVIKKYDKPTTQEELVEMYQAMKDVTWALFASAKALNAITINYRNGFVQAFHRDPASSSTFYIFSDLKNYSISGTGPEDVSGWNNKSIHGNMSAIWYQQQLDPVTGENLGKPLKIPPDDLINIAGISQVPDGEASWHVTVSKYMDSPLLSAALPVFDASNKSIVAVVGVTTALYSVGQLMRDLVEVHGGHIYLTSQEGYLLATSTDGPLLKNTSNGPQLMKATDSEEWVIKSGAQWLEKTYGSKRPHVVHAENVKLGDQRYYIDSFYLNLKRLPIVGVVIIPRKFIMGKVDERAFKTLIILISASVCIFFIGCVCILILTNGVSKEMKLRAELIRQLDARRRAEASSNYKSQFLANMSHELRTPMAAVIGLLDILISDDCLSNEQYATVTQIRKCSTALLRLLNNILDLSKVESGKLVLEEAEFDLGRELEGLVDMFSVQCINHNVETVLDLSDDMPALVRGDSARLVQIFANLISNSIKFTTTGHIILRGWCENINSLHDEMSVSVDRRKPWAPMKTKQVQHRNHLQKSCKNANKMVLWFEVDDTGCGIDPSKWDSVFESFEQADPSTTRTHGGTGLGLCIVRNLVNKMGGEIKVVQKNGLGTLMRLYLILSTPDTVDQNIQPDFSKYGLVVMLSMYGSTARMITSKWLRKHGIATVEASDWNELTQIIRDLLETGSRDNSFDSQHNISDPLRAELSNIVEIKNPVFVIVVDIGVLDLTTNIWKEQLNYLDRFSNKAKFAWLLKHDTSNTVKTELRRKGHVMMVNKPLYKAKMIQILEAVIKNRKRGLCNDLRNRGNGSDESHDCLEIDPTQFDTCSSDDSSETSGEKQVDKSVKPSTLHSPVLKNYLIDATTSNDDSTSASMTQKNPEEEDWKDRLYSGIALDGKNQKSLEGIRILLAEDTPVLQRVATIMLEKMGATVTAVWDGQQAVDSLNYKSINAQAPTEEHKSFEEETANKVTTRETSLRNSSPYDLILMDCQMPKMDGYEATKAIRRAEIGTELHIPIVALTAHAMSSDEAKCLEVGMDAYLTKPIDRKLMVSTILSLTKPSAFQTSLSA

AHP1 (Arabidopsis thaliana), sequence (Q9ZNV9 whole entry): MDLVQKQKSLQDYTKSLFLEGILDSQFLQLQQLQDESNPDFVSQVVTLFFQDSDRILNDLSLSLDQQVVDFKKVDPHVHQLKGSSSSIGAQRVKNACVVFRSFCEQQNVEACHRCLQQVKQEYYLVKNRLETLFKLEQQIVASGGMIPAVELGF

**Q.** With ETR1 (from UniProt P49333) as the molecule, how does the Kd [1] read?
**A.** Its Kd is 326 nM.

**Q.** What about the Kd [2] of the same molecule?
**A.** The Kd was 1500 nM.

**Q.** Which Kd [3] does the source give for ETR2 (from UniProt Q0WPQ2) here?
**A.** Its Kd is 96 nM.

**Q.** For “recombinant full-length Arabidopsis histidine kinase AHK1 (H10-TEV-AHK1), solubilized in FosCholine-16 (from UniProt Q9SXL4 1-1207) (receptor)”, which Kd [4] is on record?
**A.** Its Kd is 208 nM.

B1: GST-fusion protein of Arabidopsis histidine phosphotransfer protein 2 (AHP2) (natural protein, Arabidopsis thaliana, UniProt Q9ZNV8 1-156, looked up)
chain: MDALIAQLQRQFRDYTISLYQQGFLDDQFTELKKLQDDGSPDFVSEVLSLFFEDCVKLISNMARALDTTGTVDFSQVGASVHQLKGSSSSVGAKRVKTLCVSFKECCEAKNYEGCVRCLQQVDIEYKALKTKLQDMFNLEKQIIQAGGIVPQVDIN
notes: Arabidopsis histidine phosphotransfer protein 2 (AHP2), Arabidopsis thaliana; cDNA cloned into pGEX-6P-1; The apparent mass is 44 kDa; also called AHP2-GST; GST-tagged AHP2
**Q.** For B1, which Kd [5] is on record?
**A.** Its Kd is 317 ± 62 nM.
